Experimental findings from the supplement of paper PMC12042874 are described below.

± gives the uncertainty stated by the source.

The nature of the data set: amyloid nucleation score (Sup35N fusion, yeast selection) (log enrichment); library NNK1; higher = more nucleation; inactive = no reads after selection. An outline of the steps:
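For the nucleation score, DiMSum gave the log enrichment of output over input reads, centred on the mode score of non-aggregating sequences. Psi-negative yeast expressing Sup35N fused to peptides of 20 random codons were induced with 100 μM copper sulfate for 24 hours and grown 7 days at 30°C on medium lacking adenine and uracil. Input and output plasmid inserts were Illumina-sequenced, and sequences with under 100 input reads were excluded.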
On to YKATRRRQLLSPVIGEDQIG, for which the amyloid nucleation score turned out to be 0.208 ± 0.32. In the case of YKDIMHHVN, the amyloid nucleation score entry was “inactive”.

As for YKGMSAHFGLILFDCCLNGS, the amyloid nucleation score stood at 7.516 ± 0.067. In the case of YKGYYCGSDDFPDSEKPEDG, the amyloid nucleation score is -0.256 ± 0.32.

Regarding YKIVIKSGQSAN, the amyloid nucleation score was -0.252 ± 0.28. For YKLKFIRGACHSS, the amyloid nucleation score is 0.9 ± 0.63. YKSLLGRAVMFKRHQPGPRA registered an amyloid nucleation score of 0.248 ± 0.39. As to YLCQRHSFTRSRYHFLLRPV, the amyloid nucleation score is -1.02 ± 1.2.

YLCRLDLTTDRKSTGLLCGC gave an amyloid nucleation score of 0.022 ± 0.34.

For YLCRRT, the amyloid nucleation score was found to be 0.675 ± 0.63. As to YLDGTNSMNAEGNLLNKAPV, the amyloid nucleation score was 0.189 ± 0.31.

Substance YLDRSRLMIKCHVHVKYVYY registered an amyloid nucleation score of 7.92 ± 0.048. Under YLDSSFFCFLVAIKMDDARH stands 6.08 ± 0.087. YLERIGATYMGG returned an amyloid nucleation score of 0.601 ± 0.4.

Substance YLFSFWFPRYRHVIFIGYTL came in with an amyloid nucleation score of 0.531 ± 0.53.

Take YLINLRFCEREAGFNFLLGR: the amyloid nucleation score was -1.12 ± 2.7. Under YLIYVMPADVMAYWYCFT stands -0.379 ± 0.61; under YLLCFWILCFTAVGIFTGFN, 0.456 ± 0.25.

Consider YLLCMGMVFSIGKFSSIPCP, for which the amyloid nucleation score entry is “inactive”. In the case of YLQVGASADWKLTYSGSGNV, the amyloid nucleation score was determined as 2.72 ± 0.23. YLSMFVWTGGNM showed an amyloid nucleation score of 2.08 ± 0.31. With YLTWYNRYCVRYITNYHPMK, the amyloid nucleation score came to 5.96 ± 0.079.

In turn, YLWILDMAREDELHATCSGE gave an amyloid nucleation score of -0.558 ± 0.66. To YLWVIATLQFEV belongs -0.783 ± 0.63. As to YMCTLRGGGSDCTWAYPKWG, the amyloid nucleation score turned out to be 0.275 ± 0.48. In the case of YMKLKRVDMSVYSCCLVFGH, the amyloid nucleation score was -0.648 ± 0.73. YMKWTNDVNDTLDILFCVYL showed an amyloid nucleation score of 3.84 ± 0.069. Take YMLSDLITCLCVAEELFRGQ: the amyloid nucleation score stood at 4.81 ± 0.098. Substance YMLSLSPPRRC returned an amyloid nucleation score of 0.25 ± 0.33. Consider YMVFVVVSI, for which the amyloid nucleation score stood at 0.946 ± 0.24. Substance YMVSCYLAGNQDSVVCSVKW displayed an amyloid nucleation score of 2.23 ± 0.18. In the case of YNPIVWSTAY, the amyloid nucleation score entry is “inactive”. On to YNREWYYIWLLREFDVRKHS, for which the amyloid nucleation score came out at 1.43 ± 0.53. For YNSFKAVNPLKVGLVYMLKL, the amyloid nucleation score turned out to be 0.021 ± 0.55.

As to YNSRRCNIHFNFIGKC, the amyloid nucleation score was 6.783 ± 0.054. Under YNSWFI stands 0.586 ± 0.55; under YNVMYTFLHFAIGTAISRTW, -0.798 ± 0.76; under YPCHSREMHYCREWVRDLST, -0.396 ± 0.62.

Take YPGFVCKVWIVVARKSFELE: the amyloid nucleation score result was “inactive”. Under YPTYCLGCMS stands 0.672 ± 0.51; under YPYTSLRQGRDTRNREGLQC, 0.301 ± 0.61.

In turn, YQCYSFRVNFGGCWLAQHLL registered an amyloid nucleation score of 4.64 ± 0.13. To YQVCTFSNNGIWLWRLSIPH belongs 1.81 ± 0.23; to YREDKHCIHCWGVMGV, -2.16 ± 2.4. YRESSATGMMSGSDLKRWQV had an amyloid nucleation score of -2 ± 2.4. Under YRGVQCFKATKNARVLLWVV stands -0.051 ± 0.52.

Turning to YRGWVVQGIHLKFSCFAELR, the amyloid nucleation score worked out at 0.333 ± 0.97. On to YRLCSMSMRCGLRSIFSNRL, for which the amyloid nucleation score was 0.606 ± 0.57.

As for YRLRYI, the amyloid nucleation score result is “inactive”.

As for YRMIIVGLCFMVVHMAASRK, the amyloid nucleation score amounted to 0.514 ± 0.69. To YRMVCVLITVPANQIYCLLH belongs 0.541 ± 0.69; to YSAVWRSMYTQNLWVPTGMG, 1.83 ± 0.27; to YSDCDGTMCYVDAYMCGYMA, 3.46 ± 0.077. Take YSHYNTIGLYILSKVSSMAV: the amyloid nucleation score result is “inactive”. To YSILMVNWMFWCFVEAWNHD belongs 0.623 ± 0.56; to YSLIVTRCC, -0.468 ± 0.41; to YSLLTVASREVSKQSGTSRI, 0.42 ± 1.2. For YSMLQFWDRAAMSV, the amyloid nucleation score is -0.294 ± 1.5.

As for YSRNNIIHFRFISALLPEEV, the amyloid nucleation score is 0.683 ± 0.37. YSSLRGWLC: the amyloid nucleation score result was “inactive”. With YSSNWIMLIIRVMIHFFSSR, the amyloid nucleation score was 3.46 ± 0.17.

For the substance YSSSPVFGCEAPGDYQLGY, the amyloid nucleation score was 1.24 ± 0.76. YSTYLSS returned an amyloid nucleation score of 1.4 ± 0.66.

YSYNRSIASFFYFMSYCVSL: the amyloid nucleation score entry was “inactive”. On to YTLILREIYWCC, for which the amyloid nucleation score was -0.128 ± 0.54.

For the substance YTQFYVLESIYRTTLCP, the amyloid nucleation score was determined as 0.554 ± 0.58. YTSKSMRGFSKKSLFDMTFK came in with an amyloid nucleation score of 0.126 ± 0.79.

YTTDREFLPICKDAATRDFL came in with an amyloid nucleation score of -0.057 ± 1.1. The substance YTTIYLVIFSFC showed an amyloid nucleation score of 6.48 ± 0.068. Consider YTTVLAYLLTLDVGSSALSG, for which the amyloid nucleation score was -0.465 ± 1.2.

For YTYMHRNDEFALM, the amyloid nucleation score entry was “inactive”. With YVDIPVVVS, the amyloid nucleation score came out at 0.235 ± 0.32. As for YVFSG, the amyloid nucleation score is -0.202 ± 0.32. The substance YVLRSAMACLCDCVCESCGG returned an amyloid nucleation score of 2.71 ± 0.12. Substance YVLSFYHQVGPALGFIRQWI displayed an amyloid nucleation score of -1.04 ± 0.69. For the substance YVPALYRVSGLCYLLTNHEF, the amyloid nucleation score is 0.557 ± 0.18. Substance YVPMRETGCRDSTYIEWFWY came in with an amyloid nucleation score of -0.057 ± 0.24. The substance YVQFCGQHARR displayed an amyloid nucleation score of -0.516 ± 1.7. The substance YVSADLGMYTVDGAEFYCEN displayed an amyloid nucleation score of 0.106 ± 0.43. Under YVVGARNEVRGYRVGTRLIR stands 0.155 ± 1.5. In the case of YVVWQFNWLDTTHHFFELSG, the amyloid nucleation score was -0.022 ± 0.69. On to YVWIRIVVVLVRRMCNTDTQ, for which the amyloid nucleation score result was “inactive”. As to YVWMSDPSVTNHRGRLVDMG, the amyloid nucleation score was found to be 5.02 ± 0.098. YVYNFMYTVNCMVEPFWLEC registered an amyloid nucleation score of 7.12 ± 0.048. Substance YWDGYEVDVNGVREYEGNAV came in with an amyloid nucleation score of 0.305 ± 0.19. The substance YWGARNCLLYWWYGLTTEGS had an amyloid nucleation score of 0.028 ± 0.44. Substance YWLLT had an amyloid nucleation score of -0.501 ± 0.55.

Consider YWPGFSNRFR, for which the amyloid nucleation score stood at 0.397 ± 0.75. With YWPPGFAVS, the amyloid nucleation score turned out to be 1.01 ± 0.81. Consider YWRKLQYRMAGN, for which the amyloid nucleation score came out at 0.265 ± 0.64. Regarding YWTDGLFGDAT, the amyloid nucleation score stood at 0.141 ± 0.31. YWYNNAWASLWFQAWVDWYI came in with an amyloid nucleation score of 0.446 ± 0.33. With YYASVTYFILYSHRIELVVR, the amyloid nucleation score came to 1 ± 0.65.

Substance YYCRNPRSMG had an amyloid nucleation score of -0.134 ± 1.1. In turn, YYEAGQEPVNGMCSP gave an amyloid nucleation score of 0.07 ± 1.1. Substance YYFEVAVGQMSFTANVLVLS showed an amyloid nucleation score of 2.34 ± 0.28. Under YYMRGTKRRIVRVYFWMLRC stands 1.59 ± 0.4. Under YYNFCMDRRLLDNGTNGSKS stands -0.016 ± 1.7; under YYNRFILRSWEGSSMGLWSC, -0.582 ± 0.36; under YYPVKSFELGWSHLGGKHWA, 1.34 ± 0.7.

Substance YYWRPIQVVCLLASCKRTWR yielded an amyloid nucleation score of 7.749 ± 0.064.
